One assay has as its target T1, Aβ(1–40) fibrils (Homo sapiens, UniProt P05067).
T1 construct: β-amyloid peptide Aβ(1–40), the 40 amino acid isoform, cut product of the amyloid precursor protein; numbers count on: the Aβ peptide; Fibrillar assembly state; also called Aβ(1–40) amyloid fibrils; source: fibrils formed at 1 mg/ml in 50 mM sodium borate, pH 9.0, 5 days, room temperature
In words: far-Western, overlay or dot blot; spot blot: 1–20 μg of each Aβ species (oligomers/intermediates or fibrils) on nitrocellulose, blocked with 2% BSA in TBST; 4 μg/ml B10AP or KW1AP in TBST for 1 h, room temperature; NBT/BCIP; densitometry. As to conditions: both partners purified.

A further assay concerns the target T2, Aβ(1–42) fibrils (Homo sapiens, UniProt P05067).
T2 construct: β-amyloid peptide Aβ(1–42), the 42 amino acid isoform, cut product of the amyloid precursor protein; numbers count on: the Aβ peptide; Fibrillar assembly state; also called Aβ(1–42) amyloid fibrils; source: synthetic peptide (Dr. Sven Rothemund, University Leipzig); fibrils formed at 1 mg/ml in 50 mM sodium borate, pH 9.0, 5 days, room temperature
The description is as above. As to conditions: both partners purified.

The next assay deals with T3, Aβ(1–40) oligomers (Homo sapiens, UniProt P05067).
T3 construct: β-amyloid peptide Aβ(1–40), the 40 amino acid isoform, cut product of the amyloid precursor protein; numbers count on: the Aβ peptide; Oligomeric assembly state; also called Aβ(1–40) intermediates; Aβ(1-40)-derived oligomers; source: oligomers prepared in 100% HFIP, diluted 10-fold with water, supernatant after 14,000 x g
Described as above. The note with it: both partners purified.

Assay [1] addresses T4, Aβ(1–40) expressed in Drosophila (KW1;Aβ40 flies) (Homo sapiens (expressed in Drosophila), UniProt P05067).
T4 construct: β-amyloid peptide Aβ(1–40); numbers count on: the Aβ peptide; Assembly state of the peptide in the fly homogenate is not defined; source: transgenic Drosophila melanogaster (Gal4-elav c155 driver, neuronal), in head homogenate of 20-day old flies
In words: co-IP; head homogenates of 20-day old KW1;Aβ40 flies incubated with blocked protein A magnetic beads without antibody (fly KW1 binds the beads directly); PBS + 0.025% TritonX-100, room temperature; elution with 50 mM glycine pH 2.8; WB with 6E10 (Aβ) and anti-myc (KW1). As to conditions: partners not purified.

This note sets out measurements from publication PMC4029271, “Oligomer-targeting with a conformational antibody fragment promotes toxicity in Aβ-expressing flies” (Acta Neuropathologica Communications, 2014).

B1: B10AP (alkaline phosphatase coupled B10 antibody fragment) (VHH)
VHH: EVQLVESGGGLVQPGGSLRLSCTASGYTFSHRYHRWFRQAPGKEREIVAVISQSGMRTYYADSVKGRFTISRDNAKNTVYLQMNSLKPEDTAMYYCAAGTRKNVWTRQHPFDYWGQGTQVTVSS
notes: B10, phage display selected from a fully synthetic library of camelid heavy chain antibody fragments; crystal structure of B10 is PDB 3LN9; The introduction speaks of bivalent B10 in earlier work; also called AP coupled B10
For the molecule B1, the binding result with Aβ(1–40) fibrils and in the assay with Aβ(1–42) fibrils was “binds” each time.

B2: KW1AP (alkaline phosphatase coupled KW1 antibody fragment) (VHH)
VHH: EVQLVESGGGSVQPGGSLRLSCTASGYTFSQEFVIWFRQAPGKEREIVSGISLRKGWTYYADSVKGRFTISQDNAKNTVYLQMNNLKPEDTAMYYCAAAPTATHALYFDYWGQGTQVTVSS
notes: KW1, phage display selected from a fully synthetic library of camelid heavy chain antibody fragments; crystal structure of KW1 is PDB 3TPK; The introduction speaks of bivalent KW1 in earlier work; also called AP coupled KW1
Consider B2, for which, in the assay with Aβ(1–40) oligomers, the binding result is given as “binds”.

B3: fly KW1 (myc-tagged KW1 antibody fragment expressed in Drosophila neurons) (VHH)
VHH: EVQLVESGGGSVQPGGSLRLSCTASGYTFSQEFVIWFRQAPGKEREIVSGISLRKGWTYYADSVKGRFTISQDNAKNTVYLQMNNLKPEDTAMYYCAAAPTATHALYFDYWGQGTQVTVSS
notes: KW1 as in m1; crystal structure PDB 3TPK; Expressed with an N-terminal secretion signal peptide (SSP) from the Drosophila necrotic gene; Band at ~17 kDa on anti-myc Western blot; source: transgenic Drosophila melanogaster (Gal4-elav c155 driver, neuronal), in head homogenate; not shown: myc, C-terminal, kept
For the molecule B3, the binding result in assay [1] is listed as “binds”.
